Results from patent publication US20240117018A1.

Tests used:
Test in all cases: cell-based or functional assay
[1] = biological target: Env of HIV-1 pseudovirus 3415.v1.c1 (HIV-1)
[2] = biological target: MuLV envelope (negative control pseudovirus)
[3] = biological target: CAP210.2.00.E8 Env pseudovirus (HIV-1)
[4] = biological target: 62357_14_D3_4589 Env pseudovirus (HIV-1)
[5] = biological target: WITO4160.33 Env pseudovirus (HIV-1)
[6] = biological target: Q23.17 Env pseudovirus (HIV-1)
[7] = biological target: 1394C9G1(Rev-) Env pseudovirus (HIV-1)
[8] = biological target: HIV-001428-2.42 Env pseudovirus (HIV-1)
[9] = biological target: ZM109F.PB4 Env pseudovirus (HIV-1)
[10] = biological target: 263-8 Env pseudovirus (HIV-1)
[11] = biological target: Ce1086_B2 Env pseudovirus (HIV-1)
[12] = biological target: HIV-0013095-2.11 Env pseudovirus (HIV-1)
[13] = biological target: Q769.d22 Env pseudovirus (HIV-1)
[14] = biological target: 6244_13_B5_4576 Env pseudovirus (HIV-1)
[15] = biological target: Du172.17 Env pseudovirus (HIV-1)
[16] = biological target: Ce2010_F5 Env pseudovirus (HIV-1)
[17] = biological target: WEAU_d15_410_787 Env pseudovirus (HIV-1)
[18] = biological target: Q842.d12 Env pseudovirus (HIV-1)
[19] = biological target: 6535.3 Env pseudovirus (HIV-1)
[20] = biological target: 1006_11_C3_1601 Env pseudovirus (HIV-1)
[21] = biological target: 0260.v5.c36 Env pseudovirus (HIV-1)
[22] = biological target: SC05_8C11_2344 Env pseudovirus (HIV-1)
[23] = biological target: CNE58 Env pseudovirus (HIV-1)
[24] = biological target: 9004SS_A3_4 Env pseudovirus (HIV-1)
[25] = biological target: ZM214M.PL15 Env pseudovirus (HIV-1)
[26] = biological target: THRO4156.18 Env pseudovirus (HIV-1)
[27] = biological target: Ce0393_C3 Env pseudovirus (HIV-1)
[28] = biological target: QH0692.42 Env pseudovirus (HIV-1)
[29] = biological target: HIV-16845-2.22 Env pseudovirus (HIV-1)
[30] = biological target: CNE19 Env pseudovirus (HIV-1)
[31] = biological target: ZM247v1(Rev-) Env pseudovirus (HIV-1)
[32] = biological target: ZM233M.PB6 Env pseudovirus (HIV-1)
[33] = biological target: Ce2060_G9 Env pseudovirus (HIV-1)
[34] = biological target: 6240_08_TA5_4622 Env pseudovirus (HIV-1)
[35] = biological target: CNE53 Env pseudovirus (HIV-1)
[36] = biological target: ZM53M.PB12 Env pseudovirus (HIV-1)
[37] = biological target: CNE20 Env pseudovirus (HIV-1)
[38] = biological target: MS208.A1 Env pseudovirus (HIV-1)
[39] = biological target: BF1266.431a Env pseudovirus (HIV-1)
[40] = biological target: HIV-1 Env pseudovirus 3365.v2.c2 (HIV-1)
[41] = biological target: HIV-1 Env pseudovirus T257-31 (HIV-1)
[42] = biological target: HIV-1 Env pseudovirus 3415.v1.c1 (HIV-1)
[43] = biological target: HIV-1 Env pseudovirus 263-8 (HIV-1)
[44] = biological target: HIV-1 Env pseudovirus CNE8 (HIV-1)

In the case of 10-1074 (antibody), the IC50 [1] is reported as > 50 µg/mL and the IC80 [1] is reported as > 50 µg/mL.

For N49P9 (antibody), the neutralization IC50 [2] was > 50 µg/mL, the neutralization IC80 [2] was > 50 µg/mL and the neutralization MPI [2] was 13.

For N49P19 (antibody), the neutralization IC50 [2] was > 50 µg/mL, the neutralization IC80 [2] was > 50 µg/mL and the neutralization MPI [2] was 0.

In the case of PGT121 (antibody), the IC50 [3] is reported as 26.3 µg/mL, the IC80 [3] is reported as > 50 µg/mL and the IC50 [4] is reported as 2.6 µg/mL. The IC80 [4] was > 50 µg/mL, the IC50 [5] was 0.334 µg/mL and the IC80 [5] was 2.35 µg/mL. The IC50 [6] was < 0.001 µg/mL, the IC80 [6] was 0.005 µg/mL and the IC50 [7] was 0.264 µg/mL. For the same substance, the IC80 [7] was 1.95 µg/mL, the IC50 [8] was 0.014 µg/mL and the IC80 [8] was 0.051 µg/mL. For the same substance, the IC50 [9] was 8.64 µg/mL, the IC80 [9] was > 50 µg/mL and the IC50 [10] was 0.648 µg/mL. For the same substance, the IC80 [10] was 3.96 µg/mL, the IC50 [11] was < 0.001 µg/mL and the IC80 [11] was < 0.001 µg/mL. For the same substance, the IC50 [12] was > 50 µg/mL, the IC80 [12] was > 50 µg/mL and the IC50 [13] was > 50 µg/mL. The IC80 [13] was > 50 µg/mL, the IC50 [14] was 0.061 µg/mL and the IC80 [14] was 0.347 µg/mL. For the same substance, the IC50 [15] was 0.033 µg/mL, the IC80 [15] was 0.257 µg/mL and the IC50 [16] was > 50 µg/mL. For the same substance, the IC80 [16] was > 50 µg/mL, the IC50 [17] was 0.026 µg/mL and the IC80 [17] was 0.077 µg/mL. The IC50 [18] was 0.005 µg/mL, the IC50 [19] was 0.002 µg/mL and the IC80 [19] was 0.008 µg/mL. The IC50 [20] was 0.002 µg/mL, the IC80 [20] was 0.007 µg/mL and the IC50 [21] was 0.053 µg/mL. The IC80 [21] was 0.197 µg/mL, the IC50 [22] was 0.019 µg/mL and the IC80 [22] was 0.071 µg/mL. For the same substance, the IC50 [23] was > 50 µg/mL, the IC80 [23] was > 50 µg/mL and the IC50 [24] was < 0.001 µg/mL. The IC80 [24] was 0.003 µg/mL, the IC50 [25] was 0.46 µg/mL and the IC80 [25] was 2.04 µg/mL. For the same substance, the IC50 [26] was > 50 µg/mL, the IC80 [26] was > 50 µg/mL and the IC50 [27] was > 50 µg/mL. The IC80 [27] was > 50 µg/mL, the IC50 [28] was 0.302 µg/mL and the IC80 [28] was 2.31 µg/mL. It also gave an IC50 [29] of 3.97 µg/mL, an IC80 [29] of 44.6 µg/mL and an IC50 [30] of 0.008 µg/mL. It also gave an IC80 [30] of 0.105 µg/mL, an IC50 [31] of 0.028 µg/mL and an IC80 [31] of 0.082 µg/mL. The IC50 [32] was 3.69 µg/mL, the IC50 [33] was > 50 µg/mL and the IC80 [33] was > 50 µg/mL. It also gave an IC50 [34] of 0.033 µg/mL, an IC80 [34] of 0.127 µg/mL and an IC50 [35] of 0.007 µg/mL. For the same substance, the IC80 [35] was 0.024 µg/mL, the IC50 [36] was < 0.001 µg/mL and the IC80 [36] was 0.004 µg/mL. For the same substance, the IC50 [37] was < 0.001 µg/mL, the IC80 [37] was 0.002 µg/mL and the IC50 [38] was > 50 µg/mL. The IC80 [38] was > 50 µg/mL, the IC50 [39] was > 50 µg/mL and the IC80 [39] was > 50 µg/mL.

For VRC01 (antibody), the IC50 (Titer in TZM.bl cells) [40] was 0.06 µg/mL, the IC80 (Titer in TZM.bl cells) [40] was 0.17 µg/mL and the IC50 (Titer in TZM.bl cells) [41] was 2.8 µg/mL. The IC80 (Titer in TZM.bl cells) [41] was 8.66 µg/mL, the IC50 (Titer in TZM.bl cells) [42] was 0.06 µg/mL and the IC80 (Titer in TZM.bl cells) [42] was 0.15 µg/mL. For the same substance, the IC50 (Titer in TZM.bl cells) [43] was 0.2 µg/mL and the IC80 (Titer in TZM.bl cells) [43] was 0.55 µg/mL.

In the case of VRC07 (antibody), the IC50 (Titer in TZM.bl cells) [44] is reported as 0.45 µg/mL and the IC80 (Titer in TZM.bl cells) [44] is reported as 1.56 µg/mL.
